According to patent US20240059797A1 (GRITSTONE BIO, published 2024):
Numbering of substitutions follows the chain as printed.

B1: G8(2E06) scFv (scFv, V domains shown)
VH: QVQLVQSGAEVKKPGASVKVSCKASGYTLTTYYMHWVRQAPGQGLEWMGWINPNSGGTNYAQKFQGRVTMTRDTSTSTVYMELSSLRSEDTAVYYCARAVYYDFWSGPFDYWGQGTLVTVSS
VL: DIQMTQSPSSLSASVGDRVTITCRASQGISNSLAWYQQKPGKAPKLLIYAASSLQSGVPSRFSGSGSGTDFTLTISSLQPEDFATYYCQQANSFPWTFGQGTKLEIK
B2: G8(2C10) scFv (scFv, V domains shown)
VH: QVQLVQSGAEVKKPGASVKVSCKASGYTFTSYYMHWVRQAPGQGLEWMGWINPYSGGTNYAQKFQGRVTMTRDTSTSTVYMELSSLRSEDTAVYYCAKGGIYYGSGSYPSWGQGTLVTVSS
VL: B1 VL with G28D, I29V, N31T, S32W, A91S, N92H, F94T, W96Q, L104V
B3: G8(2E04) scFv (scFv, V domains shown)
VH: QVQLVQSGAEVKKPGSSVKVSCKASGGTFSSYGVSWVRQAPGQGLEWMGWISPYSGNTDYAQKFQGRVTITADESTSTAYMELSSLRSEDTAVYYCARGLYYMDVWGKGTTVTVSS
VL: DIQMTQSPSSLSASVGDRVTITCRASQSISSWLAWYQQKPGKAPKLLIYDASNLETGVPSRFSGSGSGTDFTLTISSLQPEDFATYYCQQSYSTPLTFGGGTKLEIK
B4: G8(4F05) scFv (scFv, V domains shown)
VH: QVQLVQSGAEVKKPGASVKVSCKASGYTFSNMYLHWVRQAPGQGLEWMGWINPNTGDTNYAQTFQGRVTMTRDTSTSTVYMELSSLRSEDTAVYYCARGLYGDYFLYYGMDVWGQGTKVTVSS
VL: B1 VL with S32Y, S53T, A91S, N92Y, F94T, W96L, Q100G, L104V
B5: G8(5C03) scFv (scFv, V domains shown)
VH: QVQLVQSGAEVKKPGASVKVSCKASGYTFTSYYMHWVRQAPGQGLEWMGWMNPNSGNTGYAQKFQGRVTMTRDTSTSTVYMELSSLRSEDTAVYYCARGLLGFGEFLTYGMDVWGQGTLVTVSS
VL: B1 VL with S32W, S53T, A91T, N92Y, F94T
B6: G8(5F02) scFv (scFv, V domains shown)
VH: QVQLVQSGAEVKKPGASVKVSCKASGYTFTGYYIHWVRQAPGQGLEWMGVINPSGGSTTYAQKLQGRVTMTRDTSTSTVYMELSSLRSEDTAVYYCARDRDSSWTYYYYGMDVWGQGTTVTVSS
VL: EIVMTQSPATLSVSPGERATLSCRASQSVGNSLAWYQQKPGQAPRLLIYGASTRATGIPARFSGSGSGTEFTLTISSLQSEDFAVYYCQQYGSSPYTFGQGTKVEIK
B7: G8(5G08) scFv (scFv, V domains shown)
VH: B4 VH with S30T, N31S, M32N, L34M, I51M, T55S, D57N, N59G, T63K, K118T
VL: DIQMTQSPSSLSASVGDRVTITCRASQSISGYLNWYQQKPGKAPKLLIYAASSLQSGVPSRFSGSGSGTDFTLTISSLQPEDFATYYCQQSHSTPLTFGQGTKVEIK
B8: G8(1C01) scFv (scFv, V domains shown)
VH: QVQLVQSGAEVKKPGASVKVSCKASGGTFSSHAISWVRQAPGQGLEWMGVIIPSGGTSYTQKFQGRVTMTRDTSTSTVYMELSSLRSEDTAVYYCARGDYYDSSGYYFPVYFDYWGQGTLVTVSS
VL: B3 VL with S28N, S30Y, S31T, W32Y, A34N, S91A, Y92N, S93G, T94F, L104V
B9: G8(2C11) scFv (scFv, V domains shown)
VH: QVQLVQSGAEVKKPGASVKVSCKASGYTFTSYAMNWVRQAPGQGLEWMGWINPNSGGTNYAQKFQGRVTMTRDTSTSTVYMELSSLRSEDTAVYYCARDPFWSGHYYYYGMDVWGQGTTVTVSS
VL: not shown
B10: G10(1A07) scFv (scFv, V domains shown)
VH: EVQLLESGGGLVKPGGSLRLSCAASGFTFSSYWMSWVRQAPGKGLEWVSGISARSGRTYYADSVKGRFTISRDDSKNTLYLQMNSLKTEDTAVYYCARDQDTIFGVVITWFDPWGQGTLVTVSS
VL: B1 VL with S32Y, S56G, A91Y, N92F, S93T, F94T, W96Y
B11: G10(1B07) scFv (scFv, V domains shown)
VH: QVQLVQSGAEVKKPGASVKVSCKASGYTFTSYYMHWVRQAPGQGLEWMGIIHPGGGTTSYAQKFQGRVTMTRDTSTSTVYMELSSLRSEDTAVYYCARDKVYGDGFDPWGQGTLVTVSS
VL: B1 VL with G28S, N31R, S32W, Y49F, A50D, S53R, N92E, S93A, W96Y, L104V
B12: G10(1E12) scFv (scFv, V domains shown)
VH: QVQLVQSGAEVKKPGASVKVSCKASGYIFTGYYMHWVRQAPGQGLEWMGMIGPSDGSTSYAQKFQGRVTMTRDTSTSTVYMELSSLRSEDTAVYYCAREDDSMDVWGKGTTVTVSS
VL: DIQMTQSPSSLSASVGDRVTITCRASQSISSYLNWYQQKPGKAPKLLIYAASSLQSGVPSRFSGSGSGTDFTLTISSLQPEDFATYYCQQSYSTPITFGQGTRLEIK
B13: G10(4E12) scFv (scFv, V domains shown)
VH: B12 VH with I28T, K63R, D100E, S102G, K108Q
VL: B1 VL with N31T, S32Y, A50D, A91Y, N92Y, F94Y, K103R
B14: G10(1F06) scFv (scFv, V domains shown)
VH: B12 VH with I28T, T30I, E99D, D100S, D101S, S102G, M103L, V105P, K108Q, T111L
VL: B1 VL with G28S, S32Y, A34N, A50K, Q55E, A91S, N92Y, S93I, F94I, W96Y
B15: G10(1H01) scFv (scFv, V domains shown)
VH: B12 VH with I28T, E99G, D100V, D101G, S102N, M103L, V105Y, K108Q, T111L
VL: B1 VL with G28S, S32Y, A34N, Q89H, A91T, N92Y, F94T, W96L, L104V
B16: G10(1H08) scFv (scFv, V domains shown)
VH: QVQLVQSGAEVKKPGASVKVSCKASGVTFSTSAISWVRQAPGQGLEWMGWISPYNGNTDYAQMLQGRVTMTRDTSTSTVYMELSSLRSEDTAVYYCARDAHQYYDFWSGYYSGTYYYGMDVWGQGTTVTVSS
VL: B1 VL with S32Y, A50S, S53N, N92Y, L104V
B17: G10(2C04) scFv (scFv, V domains shown)
VH: QVQLVQSGAEVKKPGASVKVSCKASGGTFSNSIINWVRQAPGQGLEWMGWMNPNSGNTNYAQKFQGRVTMTRDTSTSTVYMELSSLRSEDTAVYYCAREQWPSYWYFDLWGRGTLVTVSS
VL: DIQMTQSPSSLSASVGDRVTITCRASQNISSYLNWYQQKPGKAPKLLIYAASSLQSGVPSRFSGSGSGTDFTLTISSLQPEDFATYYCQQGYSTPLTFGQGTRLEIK
B18: G10(2G11) scFv (scFv, V domains shown)
VH: QVQLVQSGAEVKKPGASVKVSCKASGGTFSTHDINWVRQAPGQGLEWMGVINPSGGSAIYAQKFQGRVTMTRDTSTSTVYMELSSLRSEDTAVYYCARDRGYSYGYFDYWGQGTLVTVSS
VL: B1 VL with G28D, N31R, S32Y, A50D, S53N, Q55E, S56T, W96R, L104V
B19: G10(3E04) scFv (scFv, V domains shown)
VH: QVQLVQSGAEVKKPGASVKVSCKASGNTFIGYYVHWVRQAPGQGLEWVGIINPNGGSISYAQKFQGRVTMTRDTSTSTVYMELSSLRSEDTAVYYCARGSGDPNYYYYYGLDVWGQGTTVTVSS
VL: B1 VL with R24Q, G28D, S32Y, A34N, S53N, F94L, W96Y, L104V
B20: G10(4A02) scFv (scFv, V domains shown)
VH: QVQLVQSGAEVKKPGASVKVSCKASGYTLSYYYMHWVRQAPGQGLEWMGMIGPSDGSTSYAQRFQGRVTMTRDTSTGTVYMELSSLRSEDTAVYYCARDTGDHFDYWGQGTLVTVSS
VL: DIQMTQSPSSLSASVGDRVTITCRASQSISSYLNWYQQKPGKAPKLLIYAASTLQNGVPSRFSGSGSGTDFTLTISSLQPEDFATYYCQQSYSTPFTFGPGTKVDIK
B21: G10(4C05) scFv (scFv, V domains shown)
VH: B12 VH with I28T, M50I, S59T, E99A, D100E, D101N, S102G, K108Q
VL: DIQMTQSPSSLSASVGDRVTITCRASQRISSYLNWYQQKPGKAPKLLIYSASTLQSGVPSRFSGSGSGTDFTLTISSLQPEDFATYYCQQSYSTPFTFGPGTKVDIK
B22: G10(4D04) scFv (scFv, V domains shown)
VH: QVQLVQSGAEVKKPGASVKVSCKASGYTFTGYYVHWVRQAPGQGLEWMGIIAPSDGSTNYAQKFQGRVTMTRDTSTSTVYMELSSLRSEDTAVYYCARDPGGYMDVWGKGTTVTVSS
VL: DIQMTQSPSSLSASVGDRVTITCRASQSISSYLAWYQQKPGKAPKLLIYDASKLETGVPSRFSGSGSGTDFTLTISSLQPEDFATYYCQQSYGVPTFGQGTKLEIK
B23: G10(4D10) scFv (scFv, V domains shown)
VH: B12 VH with I28T, M34L, E99D, D100G, S102A, M103F, V105I, K108Q, T111M
VL: B3 VL with S28G, L104V
B24: G10(4E07) scFv (scFv, V domains shown)
VH: QVQLVQSGAEVKKPGSSVKVSCKASGYTFTGYYMHWVRQAPGQGLEWMGRISPSDGSTTYAPKFQGRVTITADESTSTAYMELSSLRSEDTAVYYCARDMGDAFDIWGQGTTVTVSS
VL: not shown
B25: G10(4G06) scFv (scFv, V domains shown)
VH: B20 VH
VL: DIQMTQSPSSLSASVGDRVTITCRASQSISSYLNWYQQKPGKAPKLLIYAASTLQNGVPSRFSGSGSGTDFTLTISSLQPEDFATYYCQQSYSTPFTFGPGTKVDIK

Columns and labels:
[1] = molecular target: HLA-A*02:01_… (HLA-PEPTIDE target G8), recombinant complex (human, enzymatically biotinylated (BirA) for screening and functional assays); assay: scFv PPE ELISA
[2] = molecular target: HLA-A*01:01_… (HLA-PEPTIDE target G10), recombinant biotinylated complex (human, enzymatically biotinylated (BirA)); assay: scFv PPE ELISA

Row | Binder | fold selective binding to target pHLA over minipool of negative control pHLAs [1] | fold selective binding to target pHLA over minipool of negative control pHLAs [2]
1 | B1 | ≥ 3 fold | –
2 | B2 | ≥ 3 fold | –
3 | B3 | ≥ 3 fold | –
4 | B4 | ≥ 3 fold | –
5 | B5 | ≥ 3 fold | –
6 | B6 | ≥ 3 fold | –
7 | B7 | ≥ 3 fold | –
8 | B8 | ≥ 3 fold | –
9 | B9 | ≥ 3 fold | –
10 | B10 | – | ≥ 3 fold
11 | B11 | – | ≥ 3 fold
12 | B12 | – | ≥ 3 fold
13 | B13 | – | ≥ 3 fold
14 | B14 | – | ≥ 3 fold
15 | B15 | – | ≥ 3 fold
16 | B16 | – | ≥ 3 fold
17 | B17 | – | ≥ 3 fold
18 | B18 | – | ≥ 3 fold
19 | B19 | – | ≥ 3 fold
20 | B20 | – | ≥ 3 fold
21 | B21 | – | ≥ 3 fold
22 | B22 | – | ≥ 3 fold
23 | B23 | – | ≥ 3 fold
24 | B24 | – | ≥ 3 fold
25 | B25 | – | ≥ 3 fold
